The Immune Epitope Database (IEDB)

Tests used:
Test in all cases: IEDB peptide-MHC binding, purified MHC/competitive/radioactivity; filed as Kd, often an IC50 or EC50 that approximates it; ≥ and ≤ were set here for values at or beyond the usual limits of such assays
Conditions in all cases: source organism: Homo sapiens
HLA-A*31:01 = biological target: HLA-A*31:01
HLA-A*03:01 = biological target: HLA-A*03:01
HLA-A*33:01 = biological target: HLA-A*33:01
HLA-A*68:01 = biological target: HLA-A*68:01
HLA-A*11:01 = biological target: HLA-A*11:01

Kd (HLA-A*31:01) [nM]	Kd (HLA-A*03:01) [nM]	Kd (HLA-A*33:01) [nM]	Kd (HLA-A*68:01) [nM]	Kd (HLA-A*11:01) [nM]	Sequence
11	570	106	1090	656	LLGPGRPYR
8.3	54	14	8.5	8.3	MSLQRQFLR
